This note sets out measurements from publication PMC2655719 (PLoS ONE, 2009).

Common to all, as to conditions: both partners purified
The target in assay [1] is T1, H-Ras (recombinant, guanine nucleotide-loaded) (UniProt P01112 1-189).
T1 construct: H-Ras expressed from pPROEXHTb(H-Ras); Treated with calf intestinal phosphatase, EDTA, TEV protease and GPPNHP before gel filtration; used loaded with GPPNHP or with GDP (two assays); also called H-Ras(GPPNHP); H-Ras(GDP); source: E. coli BL21(DE3), purified (Ni-NTA, gel filtration)
T1 sequence (P01112 whole entry): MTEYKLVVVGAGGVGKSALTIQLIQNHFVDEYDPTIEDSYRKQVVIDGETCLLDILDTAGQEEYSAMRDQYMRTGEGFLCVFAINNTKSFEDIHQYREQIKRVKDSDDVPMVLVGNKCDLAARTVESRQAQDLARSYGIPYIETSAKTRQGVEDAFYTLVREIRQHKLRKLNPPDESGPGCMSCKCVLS
Kind of assay: ITC; 300 µM RGS14(RBD1.RBD2) titrated into 20 µM H-Ras loaded with GPPNHP; 20°C; 20 mM HEPES pH 7.5, 150 mM NaCl, 1 mM MgCl2, 0.5 mM TCEP; single binding site model. Background: ITC needs no label: the signal is the heat of the interaction.

The target of assay [2] is T1, H-Ras (recombinant, guanine …). Put plainly: ITC; 300 µM RGS14(RBD1.RBD2) titrated into 20 µM H-Ras loaded with GDP; 20°C; 20 mM HEPES pH 7.5, 150 mM NaCl, 1 mM MgCl2, 0.5 mM TCEP; single binding site model.
For assay [3] the target is unchanged. The assay is described as above. This is another data set of the same source.
For assay [4] the target is unchanged. Put plainly: ITC; 300 µM RGS14(RBD1.RBD2) titrated into 20 µM H-Ras loaded with GPPNHP; 20°C; 20 mM HEPES pH 7.5, 150 mM NaCl, 1 mM MgCl2, 0.5 mM TCEP; single binding site model. This is another data set of the same source.

B1: RGS14(RBD1.RBD2) (domain or fragment)
chain: PGKYCCVYLPDGTASLALARPGLTIRDMLAGICEKRGLSLPDIKVYLVGNEQALVLDQDCTVLADQEVRLENRITFELELTALERVVRISAKPTKRLQEALQPILEKHGLSPLEVVLHRPGEKQPLDLGKLVSSVAAQRLVLDTLPG
As a reminder, the stoichiometry N is a count of units in the complex or per binding partner. The term Kd denotes a measure of binding affinity in units of concentration. Turning to B1, in assay [1], the Ka turned out to be 101000 M⁻¹, the dH is -1.81 ± 0.04 kcal/M and the “stoichiometry N” value is 1.03 ± 0.02. In assay [2], the Ka is 23500 M⁻¹, the dH is -7.1 ± 0.5 kcal/M and the “stoichiometry N” value came to 1.05 ± 0.06. Also, the Kd in assay [3] was over 200 µM. The Kd in assay [4] was about 10 µM.
